This is an account of results in patent publication US20090131309A1, “ICA512 COUPLES INSULIN SECRETION AND GENE EXPRESSION IN BETA-CELLS” (Technische Universität Dresden Medizinizche Fakultät Carl …, priority 2004, published 2009).

Experiment [1] deals with STAT5b. Nature of the experiment: Nuclear levels of STAT5b, PY-STAT5 and STAT3 in INS-1 cells (immunoblot). Type of experiment: cell-based, rat. The procedure: (§1) Culture of INS-1 cells. INS-1 cells were grown as described^27. In some instances cells were pre-incubated for 1 hour in resting buffer (0 mM glucose, 5 mM KCl) and then for 2 or 6 hours in resting or stimulating (25 mM glucose, 55 mM KCl) buffers as described^7. Calpeptin (Calbiochem) was added in the last 15 minutes of the pre-incubation, and then for the entire following period before cells were harvested. Cells were stimulated with 20 nM human growth hormone (hGH) for 20 minutes following 18 hours incubation in low serum medium (LSM) containing RPMI-1640, 11 mM glucose, 0.5% FBS 25 mM HEPES, 1% penicillin-streptomycin and 0.05 mM β-mercaptoethanol. After washing, cells were either harvested or incubated in LSM for 6 additional hours. For immunoprecipitation cells were collected 1 hour after stimulation with hGH.
Cell extracts and western blotting. INS-1 cells and pancreatic islets were harvested at 4° C. in RIPA buffer [50 mM Tris-HCl at pH 8.0, 150 mM NaCl, 1% NP-40, 0.1% SDS, 0.5% sodium deoxycholate, and 1× protease inhibitor cocktail (Sigma)] to obtain total extracts. Insoluble material was removed by centrifugation. […] Chemiluminescence was developed using the Supersignal West Pico or Femto kits (Pierce) and detected with a LAS 3000 Bioimaging System (Fuji). Protein signals were quantified with the Image Gauge v3.45 software (Fuji). […]
In general terms: A western blot detects proteins with antibodies after separation by electrophoresis.

The subject of experiment [2] is GLE of the rat insulin I gene promoter. In words: Chromatin immunoprecipitation, GLE of rat insulin I gene promoter. Type of experiment: binding. The note with it: stable INS-1 cells, anti-GFP antibodies vs control IgG.
For experiment [3], the system named is ICA512 mRNA. In words: ICA512 mRNA by real-time PCR in INS-1 cells. The conditions noted are these: transfected INS-1 cells vs cells expressing GFP alone. Type of experiment: cell-based, rat. The procedure:
PCR and real-time PCR. Cytosolic mRNA was isolated with the Oligotex Direct mRNA kit (Qiagen) according to the manufacturer's protocol. PolyA^+-enriched RNA was reverse transcribed with specific antisense primers for ICA512 and β-actin as described^8. Amplification of a 200 bp fragment flanking the GLE in the rat insulin1 (rINS1) gene promoter by PCR and real-time PCR was performed with the following primers: sense [NT], antisense [NT]. Amplification of ICA512 and β-actin was performed as described^16.
Background: Quantitative PCR measures a nucleic acid by following its amplification.

Experiment [4] deals with INS-1 cells. In words: Uridine incorporation in INS-1 cells. Type of experiment: cell-based, rat. The note with it: relative to GFP-transfected INS-1 cells.
The subject of experiment [5] is STAT5. Nature of the experiment: Firefly luciferase reporter assay for STAT activity (8GLE-CAS-FL) in INS-1 cells. Type of experiment: cell-based, rat. The conditions noted are these: co-transfected INS-1 cells, hGH stimulation. The procedure: Firefly luciferase assays. INS-1 cells were co-transfected with 8GLE-CAS-FL and one or two of the following plasmids: pEGFP, ICA512-CCF-GFP, ICA512-CCF(K/A^754)-GFP and PIASy-GFP. Two days after transfection, cells were incubated in low serum medium for 18 hrs, then stimulated with 20 nM hGH for 20 minutes, and finally left in resting buffer for 6 additional hours. Cells were harvested in 500 μl lysis reagent for luciferase assays (Promega) and 10 μl were used for measurement of luciferase activity in a Berthold luminometer. Each sample was performed in triplicate and the data represent the mean of at least 2 independent experiments.
For orientation: In a reporter assay the amount or activity of a reporter protein is the signal.

Experiment [6] deals with pro-ICA512. In words: Immunoblot for pro-ICA512 and ICA512-TMF in INS-1 cells. Type of experiment: cell-based, rat. The procedure:
as §1
Cell extracts and western blotting. INS-1 cells and pancreatic islets were harvested at 4° C. in RIPA buffer [50 mM Tris-HCl at pH 8.0, 150 mM NaCl, 1% NP-40, 0.1% SDS, 0.5% sodium deoxycholate, and 1× protease inhibitor cocktail (Sigma)] to obtain total extracts. Insoluble material was removed by centrifugation. Cytosolic and nuclear extracts were prepared using the NE-PER Nuclear and Cytoplasmic Extraction Reagents (Pierce). Proteins were separated by 8-10% SDS-PAGE and immunoblotted with the following antibodies: mouse monoclonals anti-ICA512^7, anti-STAT5 (Santa Cruz), anti-γ-tubulin and anti-HA (Sigma); rabbit anti-PY-STAT5 and anti-STAT3 (Cell Signaling); affinity purified goat anti-GFP IgGs. Chemiluminescence was developed using the Supersignal West Pico or Femto kits (Pierce) and detected with a LAS 3000 Bioimaging System (Fuji). Protein signals were quantified with the Image Gauge v3.45 software (Fuji). Half the amount of nuclear extract proteins were immunoblotted relative to total and cytosolic extract proteins.

Experiment [7] concerns the target T1, STAT5b (Rattus norvegicus, UniProt P52632).
T1 construct: endogenous in cells; host or cells: INS-1 cells transiently transfected with ICA512-CCF-GFP
T1 sequence (P52632 1-786): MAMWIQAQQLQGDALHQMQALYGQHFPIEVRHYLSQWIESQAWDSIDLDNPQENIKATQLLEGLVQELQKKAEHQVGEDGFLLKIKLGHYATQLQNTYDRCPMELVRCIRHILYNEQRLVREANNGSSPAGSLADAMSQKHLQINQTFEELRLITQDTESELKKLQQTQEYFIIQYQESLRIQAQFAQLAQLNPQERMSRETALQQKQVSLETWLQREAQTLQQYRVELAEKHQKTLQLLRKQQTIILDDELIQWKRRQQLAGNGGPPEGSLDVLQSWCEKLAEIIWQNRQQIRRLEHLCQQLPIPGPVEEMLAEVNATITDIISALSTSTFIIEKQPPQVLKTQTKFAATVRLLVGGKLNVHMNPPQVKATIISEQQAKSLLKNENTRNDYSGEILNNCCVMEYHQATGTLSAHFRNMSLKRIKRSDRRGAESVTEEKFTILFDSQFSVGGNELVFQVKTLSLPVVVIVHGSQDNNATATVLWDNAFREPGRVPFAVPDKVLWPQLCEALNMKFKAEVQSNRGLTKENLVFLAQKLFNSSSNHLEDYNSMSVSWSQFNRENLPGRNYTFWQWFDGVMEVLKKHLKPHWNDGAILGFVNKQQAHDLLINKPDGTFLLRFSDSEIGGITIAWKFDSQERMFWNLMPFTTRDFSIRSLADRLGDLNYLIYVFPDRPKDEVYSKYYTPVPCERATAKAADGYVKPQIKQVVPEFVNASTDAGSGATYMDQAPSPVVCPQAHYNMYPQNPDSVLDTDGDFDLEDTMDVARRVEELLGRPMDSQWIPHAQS
Nature of the experiment: Co-immunoprecipitation with anti-GFP antibodies from INS-1 extracts. Type of experiment: binding. The conditions noted are these: hGH-stimulated INS-1 cells. The procedure:
Immunoprecipitation. INS-1 cells were transiently transfected With one or more of the following constructs: GFP, ICA512-CCF-GFP, ICA512-CCF(K/A^754)-GFP, SUMO-1 and HA-SUMO-1. Anti-GFP IgGs were used for immunoprecipitations from total or cytosolic extracts. Immunoprecipitates were immunoblotted with anti-STAT5b, anti-PY-STAT5, anti-GFP or anti-HA antibodies. 600 μg and 200 μg protein were used as starting material for immunopreciptation of sumoylated ICA512 and STAT5, respectively.

Experiment [8] has as its system GLE of rat insulin 1. In words: EMSA with biotinylated GLE oligonucleotide of rat insulin 1 promoter. Type of experiment: binding. The conditions noted are these: nuclear extracts of INS-1 cells expressing increasing amount of construct.
For experiment [9], the system named is Insulin mRNA. In words: Insulin mRNA levels by real-time PCR in INS-1 cells. Type of experiment: cell-based, rat. The procedure:
Time-course stimulation of INS-1 cells. INS-1 ceils were incubated for 1 hr. in resting buffer (2.8 mM glucose and 5 mM KCl), then for 6 hrs. in resting or stimulating buffer, with or without 40 μM calpeptin, and then again in resting buffer for up to 24 hrs. Total RNA for real-time PCR was collected at time 0, 2 and 6 hrs. during stimulation and at 2, 6, 12 and 24 hrs. during the following resting period.
Real-time PCR. Total RNA from INS-1 cells was isolated with Trizol (Invitrogen, Karlsruhe, Germany) according to the manufacturer's protocol. 1 μg of total RNA was used for the reverse transcriptase reaction, with 2 μM specific antisense primers for […] and insulin, as described (31). mRNA expression was measured by quantitative real-time PCR using the Brilliant SYBR Green QPCR (Stratagene, La Jolla, Calif.) with an Mx4000 Multiplex Quantitative Real Time PCR System (Stratagene).

B1: ICA512-CCF-GFP: ICA512 cytoplasmic fragment generated by μ-calpain, residues 659-979, fused at its C-terminus with GFP (protein)
chain: SQFSDAAQASPSSHSSTPSWCEEPAQANMDISTGHMILAYMEDHLRNRDRLAKEWQALCAYQAEPNTCATAQGEGNIKKNRHPDFLPYDHARIKLKVESSPSRSDYINASPIIEHDPRMPAYIATQGPLSHTIADFWQMVWESGCTVIVMLTPLVEDGVKQCDRYWPDEGASLYHVYEVNLVSEHIWCEDFLVRSFYLKNVQTQETRTLTQFHFLSWPAEGTPASTRPLLDFRRKVNKCYRGRSCPIIVHCSDGAGRTGTYILIDMVLNRMAKGVKEIDIAATLEHVRDQRPGLVRSKDQFEFALTAVAEEVNAILKALPQ
modifications: left off: large carriers
notes: ICA512 cytoplasmic fragment generated by μ-calpain, residues 659-979, fused at its C-terminus with GFP
In the case of B1, the “STAT5b and STAT3 in the nucleus” value in experiment [1] (INS-1 cells transfected with increasing amount of construct) is reported as “dose-dependent increase”. Further, the “Nuclear STAT5b and nuclear PY-STAT5” value in experiment [1] (hGH 20 nM 20 min, ICA512-CCF-GFP vs GFP cells, AD/DA mutant vs ICA512-CCF-GFP cells) is recorded as “clearly increased”. In addition, the “co-immunoprecipitation of GLE of the rat insulin I gene promoter” value in [2] is listed as “co-immunoprecipitated with anti-GFP antibodies”. The “ICA512 mRNA increase” value in experiment [3] came out at 81%. Further, in [4], the “total incorporation of 3H-uridine” value stood at 270%. Also, in experiment [5], the “STAT5 transcription activity (8GLE-CAS-FL luciferase)” value was “partially restored”. Also, the ICA512-TMF levels entry in experiment [6] (transfected INS-1 cells vs GFP) is reported as “also increased”. In experiment [6] (transfected INS-1 cells vs cells expressing GFP alone), this molecule came in with a pro-ICA512 increase of 40%. In addition, the “co-immunoprecipitation of STAT5b and PY-STAT5” value in [7] is listed as “co-immunoprecipitated”. Also, in experiment [8], the “binding of a factor, conceivably STAT5b, to the GLE oligonucleotide” value is on record as “positive correlation”. For the same molecule, in experiment [9] (0.5-4 μg construct, 4 days in culture with 11 mM glucose), the “insulin mRNA levels vs amount of construct expressed” value was “correlation between the increased expression of ICA512 (659-979)-GFP and the enhancement of insulin mRNA levels”. For the same molecule, in experiment [9] (resting INS-1 cells transiently transfected, vs electroporated cells), the “Insulin mRNA increase” value was 93%. The “further increase of insulin mRNA by stimulation” value in [9] (stimulated transfected INS-1 cells) stood at 60%.
